The target of this assay is 重组MERS-CoV-S蛋白 (MERS-CoV) (UniProt K9N5Q8). As to the kind of experiment: indirect ELISA, hybridoma supernatant on coated MERS-S protein. (An ELISA detects its analyte on a solid surface through an enzyme-linked reagent.)
Chain of UniProt K9N5Q8 (K9N5Q8 324-644 limits assumed): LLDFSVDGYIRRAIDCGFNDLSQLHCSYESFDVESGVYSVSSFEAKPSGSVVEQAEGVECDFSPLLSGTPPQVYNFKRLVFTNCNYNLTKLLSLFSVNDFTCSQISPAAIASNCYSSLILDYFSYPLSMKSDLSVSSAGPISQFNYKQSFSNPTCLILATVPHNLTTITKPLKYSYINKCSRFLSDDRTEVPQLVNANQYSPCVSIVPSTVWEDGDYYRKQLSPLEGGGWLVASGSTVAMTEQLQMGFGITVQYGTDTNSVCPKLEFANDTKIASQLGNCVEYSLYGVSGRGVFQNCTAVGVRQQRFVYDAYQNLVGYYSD

B1: 抗MERS-CoV鼠单克隆抗体6E4 (antibody, V domains shown)
VH: EVDLSESLGGQVKVTGSLKLDEAASGSMHGGDVKEGASLWLWVRVTPEIELEWRDAQGVAFISAGESSTYRFTTSRDNARSDRYLQMSELRKLDTAFIYCGRYRVTLSTLQEYSWGQGDWVTTDA
VL: DIQETQTRSVLSAALGSRVTISCSMDIANYVNEYQWYQSPKPDFDVKLSIYEVLIYRSVRLQSGVPSRFSKKGSLDDYSLTISCFEPEDVEIYCNDCQILGSELPEFGDFTKIEILR
Take B1: the 效价 (titer (1:dilution)) was 256000 and the 敏感性 was 2.31 ng/mL.

B2: 抗MERS-CoV鼠单克隆抗体7G5 (antibody, V domains shown)
VH: EVQGQVSGLKLVVEGASVLKSCTSTGFLSGMGLVMPGGSNHSWVQEVPEIVLEWSGDWSANYSQDGLITSKATASADTTDSTAYLQLSEFDSEDTAVSFSCASNWLMLYMASLNWGQGEDDTVQS
VL: DISLTRSPSTLSATPQESVSLSCKQLISSYLMWTQWYQSKSHESLELTEKVELIYSNSHLHTGIPFSFSGDDSGTDFFLKVNVNSTEDFGEYFCSCQDQNTSERGDFGQATKLLEK
For B2, the 效价 (titer (1:dilution)) is 256000 and the 敏感性 turned out to be 0.561 ng/mL.

For the origin of these results see patent publication CN114989295A.
